These results are taken from US20240400715A1 (VIBRANT PHARMA, published 2024).

Substitutions are numbered along the chain they refer to.

B1: 104 (CEA-Knob+Fab-Hole) (bispecific antibody, human IgG4 S228P, kappa, F234A L235A)
chain: EVQLVESGGGFVQAGESLTLSCTSSTLTFTPYRMAWYRQAPGKQRDLVADISSGDGRTTNYADFAKGRFTISRDNIKNTVFLRMTNLKPEDTAVYYCNTFVSFVGIARSWGQGTQVTVSSESKYGPPCPPCPAPEAAGGPSVFLFPPKPKDTLMISRTPEVTCVVVDVSQEDPEVQFNWYVDGVEVHNAKTKPREEQFNSTYRVVSVLTVLHQDWLNGKEYKCKVSNKGLPSSIEKTISKAKGQPREPQVYTLPPCQEEMTKNQVSLWCLVKGFYPSDIAVEWESNGQPENNYKTTPPVLDSDGSFFLYSRLTVDKSRWQEGNVFSCSVMHEALHNHYTQKSLSLSL
heavy: EVKLLESGGGLVQPKGSLKLSCAASGFTFNTYAMNWVRQAPGKGLEWVARIRSKYNNYATYYADSVKDRFTISRDDSQSILYLQMNNLKTEDTAMYYCVRHGNFGNSYVSWFAYWGQGTLVTVSSASTKGPSVFPLAPCSRSTSESTAALGCLVKDYFPEPVTVSWNSGALTSGVHTFPAVLQSSGLYSLSSVVTVPSSSLGTKTYTCNVDHKPSNTKVDKRVESKYGPPCPPCPAPEAAGGPSVFLFPPKPKDTLMISRTPEVTCVVVDVSQEDPEVQFNWYVDGVEVHNAKTKPREEQFNSTYRVVSVLTVLHQDWLNGKEYKCKVSNKGLPSSIEKTISKAKGQPREPQVCTLPPSQEEMTKNQVSLSCAVKGFYPSDIAVEWESNGQPENNYKTTPPVLDSDGSFFLVSRLTVDKSRWQEGNVFSCSVMHEALHNRFTQKSLSLSL
light: QAVVTQESALTTSPGETVTLTCRSSTGAVTTSNYANWVQEKPDHLFTGLIGGTNKRAPGVPARFSGSLIGDKAALTITGAQTEDEAIYFCALWYSNLWVFGGGTKVEIKRTVAAPSVFIFPPSDEQLKSGTASVVCLLNNFYPREAKVQWKVDNALQSGNSQESVTEQDSKDSTYSLSSTLTLSKADYEKHKVYACEVTHQGLSSPVTKSFNRGEC
notes: TA1 Fab, C17 VHH, IgG4 Fc KIH
B2: 106 (Knob+Fab-Hole-CEA) (bispecific antibody, human IgG4 S228P, kappa, F234A L235A)
chain: ESKYGPPCPPCPAPEAAGGPSVFLFPPKPKDTLMISRTPEVTCVVVDVSQEDPEVQFNWYVDGVEVHNAKTKPREEQFNSTYRVVSVLTVLHQDWLNGKEYKCKVSNKGLPSSIEKTISKAKGQPREPQVYTLPPCQEEMTKNQVSLWCLVKGFYPSDIAVEWESNGQPENNYKTTPPVLDSDGSFFLYSRLTVDKSRWQEGNVFSCSVMHEALHNHYTQKSLSLSL
heavy: EVKLLESGGGLVQPKGSLKLSCAASGFTFNTYAMNWVRQAPGKGLEWVARIRSKYNNYATYYADSVKDRFTISRDDSQSILYLQMNNLKTEDTAMYYCVRHGNFGNSYVSWFAYWGQGTLVTVSSASTKGPSVFPLAPCSRSTSESTAALGCLVKDYFPEPVTVSWNSGALTSGVHTFPAVLQSSGLYSLSSVVTVPSSSLGTKTYTCNVDHKPSNTKVDKRVESKYGPPCPPCPAPEAAGGPSVFLFPPKPKDTLMISRTPEVTCVVVDVSQEDPEVQFNWYVDGVEVHNAKTKPREEQFNSTYRVVSVLTVLHQDWLNGKEYKCKVSNKGLPSSIEKTISKAKGQPREPQVCTLPPSQEEMTKNQVSLSCAVKGFYPSDIAVEWESNGQPENNYKTTPPVLDSDGSFFLVSRLTVDKSRWQEGNVFSCSVMHEALHNRFTQKSLSLSLGGGGSGGGGSEVQLVESGGGFVQAGESLTLSCTSSTLTFTPYRMAWYRQAPGKQRDLVADISSGDGRTTNYADFAKGRFTISRDNIKNTVFLRMTNLKPEDTAVYYCNTFVSFVGIARSWGQGTQVTVSS
light: B1 light
notes: TA1 Fab, C17 VHH, IgG4 Fc KIH
B3: 105 (Knob-CEA+Fab-Hole) (bispecific antibody, human IgG4 S228P, kappa, F234A L235A)
chain: ESKYGPPCPPCPAPEAAGGPSVFLFPPKPKDTLMISRTPEVTCVVVDVSQEDPEVQFNWYVDGVEVHNAKTKPREEQFNSTYRVVSVLTVLHQDWLNGKEYKCKVSNKGLPSSIEKTISKAKGQPREPQVYTLPPCQEEMTKNQVSLWCLVKGFYPSDIAVEWESNGQPENNYKTTPPVLDSDGSFFLYSRLTVDKSRWQEGNVFSCSVMHEALHNHYTQKSLSLSLGGGGSGGGGSEVQLVESGGGFVQAGESLTLSCTSSTLTFTPYRMAWYRQAPGKQRDLVADISSGDGRTTNYADFAKGRFTISRDNIKNTVFLRMTNLKPEDTAVYYCNTFVSFVGIARSWGQGTQVTVSS
heavy: B1 heavy
light: B1 light
notes: TA1 Fab, C17 VHH, IgG4 Fc KIH
B4: 107 (CEA-Knob-Fab-+Hole) (bispecific antibody, human IgG4 S228P, kappa, F234A L235A)
heavy: EVQLVESGGGFVQAGESLTLSCTSSTLTFTPYRMAWYRQAPGKQRDLVADISSGDGRTTNYADFAKGRFTISRDNIKNTVFLRMTNLKPEDTAVYYCNTFVSFVGIARSWGQGTQVTVSSESKYGPPCPPCPAPEAAGGPSVFLFPPKPKDTLMISRTPEVTCVVVDVSQEDPEVQFNWYVDGVEVHNAKTKPREEQFNSTYRVVSVLTVLHQDWLNGKEYKCKVSNKGLPSSIEKTISKAKGQPREPQVYTLPPCQEEMTKNQVSLWCLVKGFYPSDIAVEWESNGQPENNYKTTPPVLDSDGSFFLYSRLTVDKSRWQEGNVFSCSVMHEALHNHYTQKSLSLSLGGGGSGGGGEVKLLESGGGLVQPKGSLKLSCAASGFTFNTYAMNWVRQAPGKGLEWVARIRSKYNNYATYYADSVKDRFTISRDDSQSILYLQMNNLKTEDTAMYYCVRHGNFGNSYVSWFAYWGQGTLVTVSSASTKGPSVFPLAPCSRSTSESTAALGCLVKDYFPEPVTVSWNSGALTSGVHTFPAVLQSSGLYSLSSVVTVPSSSLGTKTYTCNVDHKPSNTKVDKRV
chain: B2 chain with Y131C, C136S, W148S, L150A, Y189V, H217R, Y218F
light: B1 light
notes: TA1 Fab, C17 VHH, IgG4 Fc KIH

In the first assay the target is T1, human CD3ε/δ (ACRO systems, CDD-H52W1) (human, UniProt P07766 23-126; P04234 22-105).
T1 construct: bought recombinant heterodimer; also called human CD3 epsilon/delta; Human CD3ε/CD3δ
As to the kind of experiment: serum-stability ELISA, Day 7 vs Day 0.
Protocol: (§1) The samples to be tested were centrifuged at 4° C. at 12000 rpm for 30 minutes to remove the precipitate. 200 μl of each sample to be tested (0.5 mg/ml) was collected in a 1.5 ml Eppendorf tube. An equal volume of human serum (GEMINI, H2OYOOK) was added, mixed thoroughly, and the mixture was incubated in a 37° C. constant temperature CO₂ incubator. For a total of 10 days, 40 μl samples was aspirated every day and stored at −20° C.
(§2) Enzyme-linked immunosorbent assay (ELISA) was used to test the bispecific antibodies' binding to human CEA and human CD3 epsilon/delta antigen. The steps are as follows: the antigen human CD3ε/δ (ACRO systems, CDD-H52W1) and the recombinant tumor antigen human CEA (CEACAM-5/CD66e, ACRO systems, CE5-H5226) were diluted to 1 μg/ml with PBS, and then added to the 96-well plate at 100 μl per well. The wells were coated overnight at 4° C. After washing 3 times with 0.05% PBST, 200 μl 5% skimmed milk powder was added to each well and incubated at 37° C. for 2 h. After washing 3 times with 0.05% PBST, 100 μl primary antibody sample (10 μg/ml) was added to each well, and incubated at 37° C. for 2 h. After washing 3 times with 0.05% PBST, 100 μl (1:6000) diluted secondary antibody goat anti-human Fc-HRP (sigma, A2170) was added to each well, incubated at room temperature for 1 h. After washing 8 times with 0.05% PBST, 50 μl TMB color developing solution was added to each well, and incubated at room temperature for 10-15 min. 50 μl 1 mM HCl was added to each well to stop the color development. 450 nm Absorbance (OD) was read.
(§3) The binding of antibodies to antigen was calculated according to the following formula: Binding (%)=[(ODdayn−ODb)/(ODday0−ODb)]×100%. ODdayn: experimental well (the protein was stored in the serum for n days); ODday0: control well (the protein was not stored in the serum); ODb: blank well (no primary antibody added).
On to B1, for which the Binding % was 103%.
Turning to B2, the Binding % was determined as 118%.
On to B3, for which the Binding % turned out to be 101%.
The molecule B4 registered a Binding % of 125%.

The target of another assay is T1, human CD3ε/δ (ACRO systems, CDD-H52W1). Kind of assay: serum-stability ELISA, Day 2 vs Day 0. In general terms: In an ELISA, binding on a coated surface is turned into a signal by an enzyme label.
Protocol: as §1, §2, §3
With B1, the Binding % was 110%.
The molecule B2 came in with a Binding % of 115%.
B3 registered a Binding % of 106%.
On the same count and under the same terms, then B4, with 123%.

For the next assay the target is unchanged. Kind of assay: serum-stability ELISA, Day 5 vs Day 0.
Protocol: as §1, §2, §3
Molecule B1 registered a Binding % of 104%.
Regarding B2, the Binding % amounted to 116%.
Still for that read-out and setting: as for B3, the figure is 107%.
Molecule B4 yielded a Binding % of 122%.

A further assay shares this target. As to the kind of experiment: serum-stability ELISA, Day 6 vs Day 0.
Protocol: as §1, §2, §3
B1 came in with a Binding % of 104%.
B2 yielded a Binding % of 122%.
The same measure, in the same setting: as for B3, the figure is 104%; as for B4, 123%.

Another assay shares this target. As to the kind of experiment: serum-stability ELISA, Day 0 (reference).
Protocol: as §1, §2, §3
In turn, B1 gave a Binding % of 100%.
For the molecule B2, the Binding % is 100%.
On the same count and under the same terms, then B3, with 100%; and B4, with 100%.

Another assay has the same target. As to the kind of experiment: serum-stability ELISA, Day 10 vs Day 0.
Protocol: as §1, §2, §3
For the molecule B1, the Binding % is 107%.
The molecule B2 displayed a Binding % of 106%.
Same read-out and setting: then B3, with 99.2%; and B4, with 102%.

The target is the same in the next assay. As to the kind of experiment: serum-stability ELISA, Day 1 vs Day 0.
Protocol: as §1, §2, §3
The molecule B1 had a Binding % of 107%.
Same read-out and setting: then B2, with 111%.
For the molecule B3, the Binding % is 103%.
B4: the Binding % turned out to be 118%.

For the next assay the target is unchanged. Kind of assay: serum-stability ELISA, Day 9 vs Day 0.
Protocol: as §1, §2, §3
As for B1, the Binding % was 108%.
The same measure, in the same setting: then B2, with 112%; and B3, with 105%; and B4, with 118%.
